The text below walks through data of US6103514A, “Protease” (The University of Tokyo, priority 1997, dated 2000).

Data set [1] in a line: Assay of protease activity with fluorescent peptidyl-MCA substrates. In kind it is biochemical. The conditions noted are these: for Hydrolysis of Z-Arg-Arg-MCA (in words): substrate Z-Arg-Arg-MCA. How it is done:
Table 2 lists specific activities of 26·29 kDa protease, cathepsin B from flesh fly and cathepsin L from flesh fly to various substrates, which were measured in terms of their hydrolytic activities against the fluorescence-attached synthetic substrates. The numeral represents the mass of fluorescent synthetic substrate hydrolyzed by a unit weight of protease, or a specific activity of that enzyme. For the numerals of Table, one unit of activity is defined as a weight of enzyme necessary for hydrolyzing 1 μmol of substrate in 10 minutes. "ND" in Table represents no result because the test not being made. Sequence listing numbers for sequences in Table 2 are: SEQ ID NO:100 and SEQ ID NO:101.
Assay of enzymatic activity was performed using 0.2 ml of 5 mM sodium phosphate (pH 6.0) containing 0.05 mM peptidyl-MCA substrate, 100 mM NaCl, 1 mM EDTA, 5 mM 2-mercaptoethanol, and 10 μl of the test fraction. The solution was incubated at 27° C. for 10 minutes, to which was added 0.2 ml of 20% aqueous solution of acetic acid to stop the reaction. Fluorescence at 380 nm and 460 nm was observed. The amount necessary for hydrolyzing 1 μmol substrate in 10 minutes under the above condition was defined as one unit of protease activity.
For purification of 26·29 kDa protease, carbobenzoxy-Arg-Arg-MCA was used as the substrate. Further, for determination of substrate specificity, various peptidyl-MCAs were used.

In another data set the test system is 26·29 kDa protease. The conditions noted are these: stated under Prior Art; cited from earlier work.
The conditions of data set [2]: cited from earlier work.
Data set [3] is described as follows: Assay of protease activity with fluorescent peptidyl-MCA substrates. In kind it is biochemical. The following applies: for Recovery of protease activity after treatment to restore activity: condition effective for recombinant human cathepsin L precursor, natural protease denatured first.
Setting [4] is: substrate Suc-Leu-Leu-Val-Tyr-MCA.
[5] abbreviates: substrate z-Arg-Arg-MCA, 1 unit hydrolyzes 1 μmol substrate in 10 minutes.
The mark [6] stands for this setting: substrate Suc-Ala-Ala-Pro-Phe-MCA.

On to “cathepsin L: cathepsin L from flesh fly, comparison cysteine protease”, for which the “Activity (units/mg enzyme)” value came out at 0.04 units/mg enzyme in data set [1] (setting [4]), 0.17 units/mg enzyme in data set [1] (setting [5]) and 180 units/mg enzyme in [1] (substrate z-Phe-Arg-MCA). For the same molecule, the “Hydrolysis of Z-Arg-Arg-MCA (in words)” value in data set [1] was “practically does not hydrolyze”.
On to “26·29 kDa protease of flesh fly (Sarcophaga peregrina), isolated and purified from body fluid cells (enzyme)”, for which the Activity (units/mg enzyme) (units/mg enzyme) with Boc-Phe-Ser-Arg-MCA was determined as 0.15; in the data set with Boc-Val-Leu-Lys-MCA it was 0.61; with Pyr-Gly-Arg-MCA, 0.03; in the data set with Suc-Ala-Ala-Pro-Phe-MCA it was 0.01; in the data set with Suc-Ala-Pro-Phe-MCA it was 0.01; in the data set with Suc-Leu-Leu-Val-Tyr-MCA, 0.03. The Activity (units/mg enzyme) (units/mg enzyme) in the data set with Z-Arg-Arg-MCA was 4.29; in the data set with Z-Phe-Arg-MCA, 2.25.
Turning to `CC(C)C[C@H](NC(=O)[C@H]1O[C@@H]1C(=O)O)C(=O)NCCCCN=C(N)N` [E64], the “Inhibition of protease activity” value in the data set on 26·29 kDa protease is given as “inhibited”.
Turning to cathepsin L from flesh fly (enzyme), the Activity (units/mg enzyme) (units/mg enzyme) with Suc-Leu-Leu-Val-Tyr-MCA worked out at 0.04; with Z-Arg-Arg-MCA, 0.17; with Z-Phe-Arg-MCA, 180.
With “cathepsin B: cathepsin B from flesh fly, comparison cysteine protease”, the “Activity (units/mg enzyme)” value in data set [1] (substrate Pyr-Gly-Arg-MCA) came to 0.29 units/mg enzyme; in [1] (setting [6]), 0.5 units/mg enzyme; in data set [1] (substrate Suc-Ala-Pro-Phe-MCA), 0.83 units/mg enzyme; in data set [1] (setting [4]) it was 18.7 units/mg enzyme; in data set [1] (setting [5]) it was 0.86 units/mg enzyme; in [1] (substrate z-Phe-Arg-MCA), 20.6 units/mg enzyme. The “Hydrolysis of Z-Arg-Arg-MCA (in words)” value in data set [1] is reported as “scarcely hydrolyzes”. In addition, the “Hydrolysis of Suc-Leu-Leu-Val-Tyr-MCA (in words, literature)” value in data set [2] (substrate Suc-Leu-Leu-Val-Tyr-MCA, Kurata et al. 1992) is on record as “hydrolyzes”. In addition, the “Hydrolysis of Z-Arg-Arg-MCA (in words, literature)” value in [2] (substrate Z-Arg-Arg-MCA, Takahashi et al. 1993) was “can not hydrolyze”.
Consider cathepsin B from flesh fly (enzyme), for which the Activity (units/mg enzyme) (units/mg enzyme) in the data set with Pyr-Gly-Arg-MCA amounted to 0.29; with Suc-Ala-Ala-Pro-Phe-MCA, 0.5; in the data set with Suc-Ala-Pro-Phe-MCA, 0.83; in the data set with Suc-Leu-Leu-Val-Tyr-MCA, 18.7; in the data set with Z-Arg-Arg-MCA, 0.86; with Z-Phe-Arg-MCA, 20.6.

B1: 26.multidot.29 kDa protease: bimolecular cysteine protease of 26 kDa and 29 kDa subunits, purified from body fluid cells of flesh fly (Sarcophaga peregrina) (protein)
chain 1: TNPPRWDPNYIVKGTLYIPYAEIAEPFYAWYDKNTRRSRIDYYGGMVKTYQLANEHPFGTSLKLAPITTKSELNKVTCLQLNGTSEDPVQVQAILPNAKDFKLIGTETFLGFNCDKFRLEETIGDKKNVYTLWVRYKKSPHYPASRMPIPVRYEMRGYNTLLGSHYDHYYLDYDSYDHDDIPNEVFELDDNMECMPFPGPGK
chain 2: NGGNLVRLSQQALIDCSWEYGNNGCDGGEDFRAYKWMMEMGGVPTEEEYGPYLGQDGYCHAKNVSLVAPITGFFNVTPNDPMALKIALLKHGPISVAIDASPKTFSFYSHGVYYEPTCKNGLDELDHAVLAVGYGTINGEDYWLVKNSWSTYWGNDGYILMSARKNNCGVMTMPTYVEM
B1: the “Activity (units/mg enzyme)” value in data set [1] (substrate Boc-Phe-Ser-Arg-MCA) stood at 0.15 units/mg enzyme; in data set [1] (substrate Boc-Val-Leu-Lys-MCA) it was 0.61 units/mg enzyme; in [1] (substrate Pyr-Gly-Arg-MCA), 0.03 units/mg enzyme; in [1] (setting [6]), 0.01 units/mg enzyme; in [1] (substrate Suc-Ala-Pro-Phe-MCA) it was 0.01 units/mg enzyme; in data set [1] (setting [4]), 0.03 units/mg enzyme. Further, the “Activity (units/mg enzyme)” value in data set [1] (setting [5]) turned out to be 4.29 units/mg enzyme; in [1] (substrate z-Phe-Arg-MCA), 2.25 units/mg enzyme. Further, the “Hydrolysis of Z-Arg-Arg-MCA (in words)” value in data set [1] is given as “well hydrolyzes”. Besides, in data set [1] (substrate Z-Phe-Arg-MCA), the “Hydrolysis of Z-Phe-Arg-MCA (in words)” value is “has also a hydrolyzing activity”. In [3], the “Recovery of protease activity after treatment to restore activity” value is given as “no positive effects”.

B2: recombinant homologue of 29 kDa subunit: recombinant protein of 29 kDa subunit expressed in E. coli, recovered as inclusion bodies (protein)
chain: B1 chain 2
As to B2, the “Recovery of protease activity after treatment to restore activity” value in data set [3] is “could not recover its activity”. The “Protease activity towards Z-Arg-Arg-MCA of recombinant protein expressed in E. coli” value in [3] (homogenate or inclusion bodies from expressing E. coli cells) is recorded as “only as much as the control E. coli cells”.
